Test results published in patent publication US20070259824A1 (TOUDAI TLO, published 2007).

Key:
[1] = molecular target: T1, CD26 on activated T cells (human, UniProt P27487 1-766); test: T cell-monocyte conjugates, confocal microscopy
T1 construct: whole, on cells; also called CD26 on T cells

[2] = molecular target: T2, GST-CD26 D1 (residues 507-766) (UniProt P27487 507-766); test: GST pull-down from THP-1 lysate, immunoblot with anti-caveolin-1
T2 construct: Produced in COS-7 cells, on GSH beads; not shown: GST of mammalian vector pEBG
T2 sequence (P27487 507-766): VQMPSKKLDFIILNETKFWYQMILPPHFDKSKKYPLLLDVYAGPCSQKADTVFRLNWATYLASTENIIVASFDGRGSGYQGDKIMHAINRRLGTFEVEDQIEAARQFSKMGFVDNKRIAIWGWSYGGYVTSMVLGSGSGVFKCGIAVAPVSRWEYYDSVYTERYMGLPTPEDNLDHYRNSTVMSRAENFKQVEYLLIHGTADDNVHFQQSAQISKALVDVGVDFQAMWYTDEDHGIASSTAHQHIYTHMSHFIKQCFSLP

[3] = molecular target: T3, GST-CD26 D2 (residues 267-584) (UniProt P27487 267-584); test: as above
T3 construct: range 267-584; Produced in COS-7 cells, on GSH beads; not shown: GST of mammalian vector pEBG
T3 sequence (P27487 267-584): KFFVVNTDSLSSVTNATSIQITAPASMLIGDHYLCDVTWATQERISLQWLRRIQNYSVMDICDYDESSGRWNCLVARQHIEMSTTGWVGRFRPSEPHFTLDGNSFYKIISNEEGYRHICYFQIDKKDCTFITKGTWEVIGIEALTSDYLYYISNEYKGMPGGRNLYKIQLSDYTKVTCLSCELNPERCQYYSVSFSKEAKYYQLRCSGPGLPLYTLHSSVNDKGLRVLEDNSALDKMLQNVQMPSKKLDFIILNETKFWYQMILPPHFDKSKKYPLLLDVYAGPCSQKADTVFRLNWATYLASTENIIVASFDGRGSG

[4] = molecular target: MyD88 (in TT-loaded monocytes) (human, UniProt Q99836 1-296); test: immunoprecipitation with anti-caveolin-1 pAb from TT-loaded monocytes
Chain of MyD88 (in TT-loaded monocytes) (Q99836 whole entry): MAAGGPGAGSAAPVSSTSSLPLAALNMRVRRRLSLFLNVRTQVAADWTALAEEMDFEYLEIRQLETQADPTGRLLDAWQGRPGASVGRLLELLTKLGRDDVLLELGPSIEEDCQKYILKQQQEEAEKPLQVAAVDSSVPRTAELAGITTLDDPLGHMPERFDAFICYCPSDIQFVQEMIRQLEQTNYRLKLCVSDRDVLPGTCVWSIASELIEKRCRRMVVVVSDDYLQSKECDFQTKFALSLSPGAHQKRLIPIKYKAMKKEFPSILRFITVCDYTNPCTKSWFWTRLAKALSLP

[5] = molecular target: T4, IRAK-4 (in TT-loaded monocytes) (human, UniProt Q9NWZ3 1-460); test: as above
T4 sequence: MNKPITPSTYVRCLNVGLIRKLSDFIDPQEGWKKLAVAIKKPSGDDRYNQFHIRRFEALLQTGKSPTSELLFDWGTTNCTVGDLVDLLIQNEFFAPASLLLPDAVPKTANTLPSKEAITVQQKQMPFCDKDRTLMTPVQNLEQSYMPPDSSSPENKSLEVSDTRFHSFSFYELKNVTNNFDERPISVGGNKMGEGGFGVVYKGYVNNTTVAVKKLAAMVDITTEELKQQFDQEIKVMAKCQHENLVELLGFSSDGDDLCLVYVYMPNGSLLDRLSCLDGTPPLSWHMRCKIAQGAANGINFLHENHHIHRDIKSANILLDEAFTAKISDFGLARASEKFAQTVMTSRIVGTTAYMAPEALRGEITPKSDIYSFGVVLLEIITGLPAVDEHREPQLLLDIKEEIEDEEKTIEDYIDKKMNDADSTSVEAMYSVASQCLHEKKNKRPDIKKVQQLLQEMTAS

[6] = molecular target: endogenous Tollip (THP-1 cells, monocytes) (human, UniProt Q9H0E2 2-274); test: immunoprecipitation with anti-caveolin-1 pAb from TT-loaded monocytes, immunoblot with anti-Tollip
[7] = molecular target: T5, CD26 in J.CD26 cell lysate (Jurkat T cells with stable expression of CD26) (UniProt P27487 1-766); test: GST pull-down from J.CD26 lysate, immunoblot with anti-CD26
T5 construct: Whole CD26 from transfected cells, used as lysate in the GST pull-down; also called CD26 transfected Jurkat T cells
T5 sequence (P27487 whole entry): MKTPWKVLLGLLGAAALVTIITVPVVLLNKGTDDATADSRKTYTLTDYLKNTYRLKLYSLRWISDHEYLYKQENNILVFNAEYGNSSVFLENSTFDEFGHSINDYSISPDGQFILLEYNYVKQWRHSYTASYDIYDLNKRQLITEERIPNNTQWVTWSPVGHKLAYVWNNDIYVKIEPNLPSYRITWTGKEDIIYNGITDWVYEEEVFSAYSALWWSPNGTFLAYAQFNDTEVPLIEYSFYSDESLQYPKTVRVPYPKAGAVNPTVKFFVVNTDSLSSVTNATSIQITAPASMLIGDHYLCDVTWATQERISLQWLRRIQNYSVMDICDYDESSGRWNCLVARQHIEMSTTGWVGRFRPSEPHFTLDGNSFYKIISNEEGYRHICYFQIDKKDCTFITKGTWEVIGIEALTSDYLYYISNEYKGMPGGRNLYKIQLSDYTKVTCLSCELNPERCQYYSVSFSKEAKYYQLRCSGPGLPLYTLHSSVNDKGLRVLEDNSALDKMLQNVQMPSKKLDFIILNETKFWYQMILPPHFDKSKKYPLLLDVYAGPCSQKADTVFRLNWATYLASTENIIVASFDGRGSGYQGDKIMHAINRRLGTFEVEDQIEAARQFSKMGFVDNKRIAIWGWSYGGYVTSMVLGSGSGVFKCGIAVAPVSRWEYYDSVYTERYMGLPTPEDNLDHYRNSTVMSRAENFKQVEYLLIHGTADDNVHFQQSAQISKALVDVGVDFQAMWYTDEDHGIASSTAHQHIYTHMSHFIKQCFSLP

[8] = molecular target: T6, recombinant soluble CD26 (rsCD26 wt) (UniProt P27487 29-766, limits assumed); test: confocal microscopy of transfected HEK293 cells
T6 construct: extracellular domain; Used free, conjugated with Texas red, or coated on latex beads; also called sCD26-TR; CD26-TR
T6 sequence (P27487 29-766 limits assumed): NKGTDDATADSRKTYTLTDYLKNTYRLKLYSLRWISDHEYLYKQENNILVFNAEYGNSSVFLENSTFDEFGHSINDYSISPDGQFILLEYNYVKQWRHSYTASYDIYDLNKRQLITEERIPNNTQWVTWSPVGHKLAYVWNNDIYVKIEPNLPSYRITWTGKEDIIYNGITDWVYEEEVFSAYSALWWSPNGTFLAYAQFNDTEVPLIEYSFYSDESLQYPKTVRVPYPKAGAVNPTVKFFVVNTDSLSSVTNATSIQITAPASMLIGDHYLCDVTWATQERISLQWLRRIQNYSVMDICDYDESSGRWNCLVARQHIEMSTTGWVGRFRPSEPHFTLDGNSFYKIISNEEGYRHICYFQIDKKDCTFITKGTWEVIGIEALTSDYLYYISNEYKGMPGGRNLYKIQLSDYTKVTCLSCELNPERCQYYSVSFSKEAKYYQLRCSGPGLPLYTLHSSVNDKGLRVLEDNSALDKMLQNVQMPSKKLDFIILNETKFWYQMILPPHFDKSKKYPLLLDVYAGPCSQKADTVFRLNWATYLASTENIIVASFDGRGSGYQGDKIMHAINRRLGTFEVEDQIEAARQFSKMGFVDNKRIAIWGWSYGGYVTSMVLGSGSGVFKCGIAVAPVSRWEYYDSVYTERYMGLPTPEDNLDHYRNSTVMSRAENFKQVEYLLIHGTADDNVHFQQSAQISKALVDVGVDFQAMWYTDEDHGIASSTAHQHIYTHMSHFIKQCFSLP

[9] = molecular target: T7, GFP-fused wild type CD26 (CD26 wt-GFP) on transfected HEK293 cells (UniProt P27487 1-766); test: confocal microscopy of transfected HEK293 cells
T7 construct: also called CD26-EGFP; GFP-CD26 wt; not shown: EGFP of vector pEB6-CAG-EGFP (engineered variant of Aequorea victoria GFP)
T7 sequence (P27487 whole entry, the tested form may be a part): as the sequence (P27487 whole entry) above

[10] = molecular target: T8, CD26 S630A-GFP on transfected HEK293 cells (UniProt P27487 1-766); test: confocal microscopy of transfected HEK293 cells
T8 construct: also called DPPIV activity-deleted mutant (S630A); not shown: EGFP of vector pEB6-CAG-EGFP
T8 sequence (P27487 whole entry S630A): as the sequence (P27487 whole entry) above, with S630A counted along it

T1 sequence (P27487 whole entry): as the sequence (P27487 whole entry) above

B1: caveolin-1 on the cell surface of TT-loaded monocytes (other)
chain: SGGKYVDSEGHLYTVPIREQGNIYKPNNKAMADELSEKQVYDAHTKEIDLVNRDPKHLNDDVVKIDFEDVIAEPEGTHSFDGIWKASFTTFTVTKYWFYRLLSALFGIPMALIWGIYFAILSFLHIWAVVPCIKSFLIEIQCISRVYSIYVHTVCDPLFEAVGKIFSNVRINLQKEI
notes: whole, on cells
Does B1 bind [1]?
Result: binds

B2: endogenous caveolin-1 (THP-1 cell lysate, monocyte lysate) (other, human, UniProt Q03135 2-178, looked up)
chain: SGGKYVDSEGHLYTVPIREQGNIYKPNNKAMADELSEKQVYDAHTKEIDLVNRDPKHLNDDVVKIDFEDVIAEPEGTHSFDGIWKASFTTFTVTKYWFYRLLSALFGIPMALIWGIYFAILSFLHIWAVVPCIKSFLIEIQCISRVYSIYVHTVCDPLFEAVGKIFSNVRINLQKEI
notes: Endogenous whole protein from cell lysates
Does B2 bind [2]?
Result: no binding

Does B2 bind [3]?
Result: no binding

Does B2 bind [4]?
Result: no binding

Does B2 bind [5]?
Result: no binding

Does B2 bind [6]?
Result: binds

B3: GST-Cav-1 (102-178) (other, UniProt Q03135 102-178, looked up)
chain: LLSALFGIPMALIWGIYFAILSFLHIWAVVPCIKSFLIEIQCISRVYSIYVHTVCDPLFEAVGKIFSNVRINLQKEI
notes: range 102-178; not shown: GST of vector pGEX6p1
Does B3 bind [7]?
Result: no binding

B4: GST-Cav-1 (1-82) (other, UniProt Q03135 1-82, looked up)
chain: MSGGKYVDSEGHLYTVPIREQGNIYKPNNKAMADELSEKQVYDAHTKEIDLVNRDPKHLNDDVVKIDFEDVIAEPEGTHSFD
notes: range 1-82; not shown: GST of vector pGEX6p1
Does B4 bind [7]?
Result: no binding

B5: GFP-fused full-length caveolin-1 (caveolin-1-GFP) in transfected cells (other, UniProt Q03135 1-178, looked up)
chain: MSGGKYVDSEGHLYTVPIREQGNIYKPNNKAMADELSEKQVYDAHTKEIDLVNRDPKHLNDDVVKIDFEDVIAEPEGTHSFDGIWKASFTTFTVTKYWFYRLLSALFGIPMALIWGIYFAILSFLHIWAVVPCIKSFLIEIQCISRVYSIYVHTVCDPLFEAVGKIFSNVRINLQKEI
notes: Expressed in HEK293 cells (with sCD26-TR) or stably in THP-1 cells (with Tollip); also called caveolin-1-EGFP; GFP-caveolin-1; not shown: EGFP of vector pEB6-CAG-EGFP
Does B5 bind [8]?
Result: binds

B6: Texas red conjugated caveolin-1 (cav-TR) (other, UniProt Q03135 1-178, looked up)
chain: MSGGKYVDSEGHLYTVPIREQGNIYKPNNKAMADELSEKQVYDAHTKEIDLVNRDPKHLNDDVVKIDFEDVIAEPEGTHSFDGIWKASFTTFTVTKYWFYRLLSALFGIPMALIWGIYFAILSFLHIWAVVPCIKSFLIEIQCISRVYSIYVHTVCDPLFEAVGKIFSNVRINLQKEI
modifications: Texas red conjugated
notes: range 1-178; also called caveolin-1 wt recombinant protein
What does the source list for B6?
binding result [9]: binds; binding result [10]: no binding
